We go through one substance from patent publication US20250282868A1.

The target in experiment [1] is mouse TREM2 (mouse) (UniProt Q99NH8). Kind of experiment: MFI on CT26 cells over-expressing mouse TREM2 and DAP12; control in the row of EOS006169.
For experiment [2] the target is unchanged. Kind of experiment: MFI on CT26 cells over-expressing mouse TREM2 and DAP12; control in the row of EOS006180.
Experiment [3] has the same target. Kind of experiment: MFI on CT26 cells over-expressing mouse TREM2 and DAP12; control in the row of EOS006178.
Experiment [4] has the same target. Briefly: MFI on CT26 cells over-expressing mouse TREM2 and DAP12; control in the row of EOS006177.
Experiment [5] shares this target. Kind of experiment: MFI on CT26 cells over-expressing mouse TREM2 and DAP12; control in the row of EOS006174.
Experiment [6] shares this target. Briefly: MFI on CT26 cells over-expressing mouse TREM2 and DAP12; control in the row of Ab52.
Experiment [7] has the same target. Briefly: MFI on CT26 cells over-expressing mouse TREM2 and DAP12; control in the row of EOS006166.
Experiment [8] shares this target. Briefly: MFI on CT26 cells over-expressing mouse TREM2 and DAP12; control in the row of EOS006181.
Experiment [9] shares this target. Kind of experiment: MFI on CT26 cells over-expressing mouse TREM2 and DAP12; control in the row of EOS006176.
Experiment [10] has the same target. Briefly: MFI on CT26 cells over-expressing mouse TREM2 and DAP12; control in the row of EOS006163.
Experiment [11] shares this target. Kind of experiment: MFI on CT26 cells over-expressing mouse TREM2 and DAP12; control in the row of EOS006179.
For experiment [12] the target is unchanged. Briefly: MFI on CT26 cells over-expressing mouse TREM2 and DAP12; control in the row of EOS006173.
The target is the same in experiment [13]. Kind of experiment: MFI on CT26 cells over-expressing mouse TREM2 and DAP12; control in the row of EOS006164.
For experiment [14] the target is unchanged. Briefly: MFI on CT26 cells over-expressing mouse TREM2 and DAP12; control in the row of EOS006172.
The target is the same in experiment [15]. Kind of experiment: MFI on CT26 cells over-expressing mouse TREM2 and DAP12; control in the row of PN-37012.
Experiment [16] has the same target. Briefly: MFI on CT26 cells over-expressing mouse TREM2 and DAP12; control in the row of EOS006165.
Experiment [17] shares this target. Briefly: MFI on CT26 cells over-expressing mouse TREM2 and DAP12; control in the row of EOS006175.
Experiment [18] shares this target. Kind of experiment: MFI on CT26 cells over-expressing mouse TREM2 and DAP12; control in the row of EOS006162.
The target is the same in experiment [19]. Briefly: MFI on CT26 cells over-expressing mouse TREM2 and DAP12; control in the row of EOS006167.
Experiment [20] shares this target. Briefly: MFI on CT26 cells over-expressing mouse TREM2 and DAP12; control in the row of EOS006168.
The target is the same in experiment [21]. Kind of experiment: MFI on CT26 cells over-expressing mouse TREM2 and DAP12; control in the row of EOS006170.

Sequence of mouse TREM2 (mouse) (Q99NH8 19-227): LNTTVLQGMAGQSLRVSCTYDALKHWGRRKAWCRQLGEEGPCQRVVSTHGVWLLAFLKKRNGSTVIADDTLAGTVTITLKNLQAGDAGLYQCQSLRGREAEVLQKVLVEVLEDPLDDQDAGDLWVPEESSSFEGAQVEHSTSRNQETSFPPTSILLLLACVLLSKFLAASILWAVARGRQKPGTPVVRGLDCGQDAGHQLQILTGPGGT

Take Isotype control (antibody): the Isotype control on CT26-TREM2 MFI with mouse TREM2 (mouse) [1] was determined as 679 MFI; in the experiment with mouse TREM2 (mouse) [2] it was 2170 MFI; in the experiment with mouse TREM2 (mouse) [3], 345 MFI; in the experiment with mouse TREM2 (mouse) [4], 345 MFI; with mouse TREM2 (mouse) [5], 345 MFI; with mouse TREM2 (mouse) [6], 402 MFI. For the same substance, the Isotype control on CT26-TREM2 MFI with mouse TREM2 (mouse) [7] worked out at 295 MFI; with mouse TREM2 (mouse) [8], 345 MFI; in the experiment with mouse TREM2 (mouse) [9], 345 MFI; with mouse TREM2 (mouse) [10] it was 402 MFI; in the experiment with mouse TREM2 (mouse) [11], 679 MFI; with mouse TREM2 (mouse) [12] it was 679 MFI. Further, the Isotype control on CT26-TREM2 MFI with mouse TREM2 (mouse) [13] was determined as 345 MFI; with mouse TREM2 (mouse) [14], 2170 MFI; in the experiment with mouse TREM2 (mouse) [15] it was 302 MFI; in the experiment with mouse TREM2 (mouse) [16] it was 2170 MFI; in the experiment with mouse TREM2 (mouse) [17], 679 MFI; with mouse TREM2 (mouse) [18] it was 2170 MFI. The figures for the Isotype control on CT26-TREM2 MFI in the experiment with mouse TREM2 (mouse) [19], with mouse TREM2 (mouse) [20] and with mouse TREM2 (mouse) [21] were 2170 MFI, 2170 MFI and 679 MFI, respectively.
